{"source": "paper PMC4270767", "about": "(PLoS ONE, 2014)", "molecules": {"B1": {"name": "ACT-domains: ACT domains of MtSerB2 alone (residues 1–165) (protein, UniProt O53289 1-165, looked up, fragment)", "chain": "MPAKVSVLITVTGMDQPGVTSALFEVLAQHGVELLNVEQVVIRGRLTLGVLVSCPLDVADGTALRDDVAAAIHGVGLDVAIERSDDLPIIRQPSTHTIFVLGRPITAGAFSAVARGVAALGVNIDFIRGISDYPVTGLELRVSVPPGCVGPLQIALTKVAAEEHV", "modifications": "ACT domains"}, "B2": {"name": "PSPD: phosphoserine phosphatase domain of MtSerB2 alone (residues 165–409) (protein, UniProt O53289 165-409, looked up, fragment)", "chain": "VDVAVEDYGLAWRTKRLIVFDVDSTLVQGEVIEMLAARAGAQGQVAAITEAAMRGELDFAESLQRRVATLAGLPATVIDDVAEQLELMPGARTTIRTLRRLGFRCGVVSGGFRRIIEPLARELMLDFVASNELEIVDGILTGRVVGPIVDRPGKAKALRDFASQYGVPMEQTVAVGDGANDIDMLGAAGLGIAFNAKPALREVADASLSHPYLDTVLFLLGVTRGEIEAADAGDCGVRRVEIPAD", "modifications": "phosphoserine phosphatase domain"}, "B3": {"name": "Wild-type: recombinant hexa-his-tagged M. tuberculosis phosphoserine phosphatase SerB2 (Rv3042c) (protein, UniProt O53289 1-409, looked up)", "chain": "MPAKVSVLITVTGMDQPGVTSALFEVLAQHGVELLNVEQVVIRGRLTLGVLVSCPLDVADGTALRDDVAAAIHGVGLDVAIERSDDLPIIRQPSTHTIFVLGRPITAGAFSAVARGVAALGVNIDFIRGISDYPVTGLELRVSVPPGCVGPLQIALTKVAAEEHVDVAVEDYGLAWRTKRLIVFDVDSTLVQGEVIEMLAARAGAQGQVAAITEAAMRGELDFAESLQRRVATLAGLPATVIDDVAEQLELMPGARTTIRTLRRLGFRCGVVSGGFRRIIEPLARELMLDFVASNELEIVDGILTGRVVGPIVDRPGKAKALRDFASQYGVPMEQTVAVGDGANDIDMLGAAGLGIAFNAKPALREVADASLSHPYLDTVLFLLGVTRGEIEAADAGDCGVRRVEIPAD", "modifications": "full-length His6 tag"}}}
{"system": "THP-1 cells", "assay_type": "cell-based", "details": "100 µg of purified protein, 30 minutes and 2 hours"}
{"molecule": "B1", "rearrangement of microtubules": "almost no re-arrangement of the microtubules"}
{"molecule": "B2", "rearrangement of microtubules": "significant"}
{"molecule": "B3", "rearrangement of microtubules": "striking rearrangement of microtubules"}
